Reference: US20200139098A1, “DELIVERY SYSTEM AND PROCESS” (POLYPHARMA PTY LTD, priority 2006, published 2020)

System: rabbit eyes
Test: Distribution of Avastin in sectioned rabbit eyes by fluorescence and DIC microscopy, after intravitreal injection or sonophoresis from a hydrogel
Format: in vivo
Source text: As described above, the delivery system or device can be used to deliver molecules and/or nanoparticles to the eye of a patient. Once delivered to the surface of the eye, the molecules and/or nanoparticles can penetrate the outer surface of the eye and diffuse to the posterior parts of the eye. For example, FIGS. 14 to 19 are optical microscope images of sectioned rabbit eyes imaged by Differential Interference Contrast (DIC) phase contrast imaging and fluorescence imaging, illustrating the distribution of the monoclonal antibody Avastin to various parts of the eye. Each of these six Figures includes two panels, comprising a left-hand panel showing a fluorescence image, and a right-hand panel showing a white light DIC phase contrast image. FIGS. 14 to 16 illustrate the distribution of Avastin delivered by intravitreal injection, whereas FIGS. 17 to 19 show the distribution of Avastin delivered from a hydrogel by sonophoresis of five minute duration. The red colour in the fluorescence images indicates a secondary antibody bound to Avastin. Consequently, the red colour indicates the location of Avastin in the tissues of the eye.
The vitreous humor is not visible in the “white-light” DIC images because the sections are mounted on the slides using a 90% glycerol solution in order to stabilise the cover slip and the section during the confocal microscopy. The glycerol has a similar refractive index to the vitreous humor.

“Avastin: the monoclonal antibody Avastin” was tested, and the “presence of Avastin in vitreous humor (staining)” value (rabbit eye (LE), Sonoactuator: hydrogel, sonophoresis of five minute duration) was “not visibly stained”, the “presence of Avastin in vitreous (red staining)” value (rabbit eye (RE), intravitreal injection) was “abundant presence” and the “staining of ciliary body for Avastin” value (rabbit eye, delivery from the gel with ultrasound) was “does not stain well”. For the same substance, the “staining of ciliary body and iris for Avastin” value (rabbit eye, intravitreal injection) was “heavily stained” and the “delivery of Avastin to choroid and retina” value (rabbit eye, non-invasive delivery from hydrogel under ultrasonic stimulation (FIGS. 17 to 19)) was “non-invasively delivered to the choroid and retina”.
